CN117567617A (CHINA RESOURCES BIOMEDICAL CO LTD, dated 2024)

Legend:
[1] = target: T1, CLDN18.2 (species not stated); assay: flow cytometry on CLDN18.2-overexpressing cells, MFI against antibody concentration
T1 construct: whole, on cells; the form of the antigen in the ka/kd/KD measurement is not described; also called CLDN18.2过表达细胞; claudin18.2

[2] = target: T1, CLDN18.2 (species not stated at that …); assay: affinity measurement, method not described

B1: 全人源抗CLDN18.2抗体2A2 (CLDN-BC-2A2-hH1) (antibody, V domains shown)
VH: QVQLQQWGPGLVKPSQTLSLTCTVSGGSISSVGYYWSWIRQHPGQGLEWVGYIYYSGGTYYNPSLKSRVTISLDTSKNQFSLKLTSVTAADTAVYYCASYGSVSPYYYYYGMDVWGQGTTVTVSS
VL: DIVMTQSPSSVSASVGDRVTITCRASQGISSWLAWYQQKPGKAPNLLISAASSLQSGVPSRFSGNGSGTDFTLTISSLQPEDFASYYCQQANSFPITFGQGTRLEIK
notes: The label 2A2-hIgG1 points to a human IgG1 full antibody; Made by transient expression in ExpiCHO; also called CLN-2A2-hH1; 2A2-hIgG1
- EC50 [1]: 0.62 µg/mL
- Kd [2]: 5.24 nM
- koff [2]: 0.00172 s⁻¹
- kon [2]: 328000 M⁻¹ s⁻¹
